Measurements as given in the nanobody polyreactivity screen of Harvey et al. (2022).

Assay: yeast display, Sf9 membrane polyspecificity reagent, FACS + sequencing; frameworks hold sequencing errors
Procedure, shortened: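 Synthetic nanobody libraries on Saccharomyces cerevisiae BJ5465 were galactose-induced for 36–48 hours, stained 1 hour at 4 °C with 10% biotinylated, detergent-solubilized Sf9 membrane reagent and enriched on streptavidin microbeads. FACS then separated cells into low and high (top ~1%) gates by anti-HA (expression) and streptavidin (reagent binding) fluorescence. Genes were colony-PCR amplified, MiSeq 2 × 250 sequenced and CDR-length filtered. A clone's polyreactivity label is that of its gate of origin.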

Sequence	polyreactivity (PSR sort gate)
QVQLVESGGGLVQAGGSLRLSCAASGYTFWWYAMGWYRQAPGKEREFVAAIRFSGGTGTYYADSVKGRFTISRDNAKNTVYLQMNSLKPEDTAVYYCAADIAFRQWQVGDFDYWGQGTQVTVSS	low polyreactivity
QVKLLESGGGLVQAGGSLRLTCAASGSTFPPYAMGWYRQAPGTESELVAAISYRDTGTYYADSVKGRFTISRDNAKYTVYLQMNSLKPEDTAVYYCATLGYFSASRTDYDYWGQGTQVTVSS	low polyreactivity
QVQLVESGGGLVQAGGSLRLSCAASGRTFVFYAMGWYRQAPGKERELVAAITSSGRTKYADSVKGRFTISRDNAKNTVYLQMNSLKPEDTAVYYCAVLRWPGLDYYWGQGTQVTVSS	high polyreactivity
QVQLVESGGGLVQAGGSLRLSCAASGRTFEQYAMGWYRQAPGKERELVAAISKRGGSTYYADSVKGRFTISRDNAKNTVYLQMNSLKPEDTAVYYGATEKASNYFYRFDYWGQGTQVTVSS	low polyreactivity
QVQLVESGGGLVQAGGSLRLSCAASGITFSLYAMGWYRQAPGKERELVAAITRSGGSTYYADSVKGRFTISRDNAKNTVYLQMNSLKPEDTAVYYCAAQRPGVRRYYYWGQGTQVTVSS	high polyreactivity
QVQLVESGGGLVQAGGSLRLSCAASGFTFRIYAMGWYRQAPGKERELVATISWSGTSTYYADSVKGRFTISRDNAKNTVYLQMNSLKPEDTAVYYCAKDGVSFYWLNKYYYWGQGTQVTVSS	low polyreactivity
QVQLVESGGGLVQEGGSLRLSCAASGSIFKQYAMGWYRQAPGKERELVAAISYSGGTTYYADSVKGRFTISRDNAKNTVYLQMNSMKPEDTAVYYCAAEWWILSYRFDYWGQGTQVTVSS	high polyreactivity
QVQLVESGGGLVQAGGSLRLSCAASGRSFRYYAMGWYRQAPGKERELVAAISVSGGTTYYADSVKGRFTISRDNAKNTVYLQMNSLKPEDTAVYYCNAYYLAEYDYWGQGTQVTVSS	high polyreactivity
QVQLVESGGGLVQAGGSLRLSCAASGRIFTKNTMGWYRQAPAQERELVAAIRSRAGSTYYADSVKGRFTISRDNEKNTVYLQMNSLKPEDTAVYYCAVRWFRSVDFDYWGQGTQVTVSS	low polyreactivity
QVQLVESGGGLVQAGGSLRLSCAASGFTFDYYVMGWYIQAPGKERELVAAITFSATSTYYADSVKGRYTISRDNAKNTVYLQMNSLNPEDTAVYYCAAVICNWQYQYYYWGQGTKVTVSS	low polyreactivity
QVQLVESGGGLVQAGGSLRLSCAASGYTFYVYTMGWYRQAPGKERELVAAISGSGTSTYYADSVKGRFTISRDNAKNTVYLQMNSLKPEDTAVYYCAAEDYSSDVYSYDYWGQGTQVTVSS	low polyreactivity
QVQLVESGGGLVHAGGSLRLSCAASGSTLAGYAMGWYRQAPGKERELVAAIDWTGGSTTYSDSVKGRFTISRDNAKNTVYLQMNSLKPEDTAVYFCHVDLGVNGDYWGQGTQVTVSS	low polyreactivity
QVQLVESGGGLVQAGGSLRLSCAASGLILYYYAMGWYRQAPGKERELVAAISRRDGDTYYADSVKGRFTISRDNAKNTVYLQMNSLKPEDTAVYYCAAERRWSWVVRDDYWGQGTQVTVSS	low polyreactivity
QVQLVESGGGLVQAGGSLRLSCAASGIIFYGYVMGWYRQAPGKERELVATSTSSGGSTYYADSVKGRFTISRDNAKNTGYLQMNSLKPEDTAVYYCAADYDYGAWVRHDYWGQGTQVTVSS	low polyreactivity
QVQLVESGGGLVQAGGSLRLSCAASGRTFQSNAMGWYRQAPGKERELVAAITNGGNTNYADSVKGRFTISRDNAKNTVYLQMNSLKPEDTAVYYCAADRLYVRYGYWGQGTQVTVSS	low polyreactivity
QVQLVESGGGLVQAGGSLRLSCAASGSTFSWNTMGWYRQAPGKERELVAAISRRGGSTYYADSVKGRFTISRDNAKNTVYLQMNSLKPEDTAVYYCNAKYYYGHRPATAGRYYYWGQGTQVTVSS	high polyreactivity
